Measured values published in publication PMC7545097, “Mapping the native interaction surfaces of PREP1 with PBX1 by cross-linking mass-spectrometry and mutagenesis” (Scientific Reports, 2020).

T1: PREP1_(1-436), wild-type recombinant (TR-FIA) (UniProt P55347 1-436)
T1 construct: also called wild-type PREP1; PKNOX1; source: E. coli, purified
T1 sequence (looked up): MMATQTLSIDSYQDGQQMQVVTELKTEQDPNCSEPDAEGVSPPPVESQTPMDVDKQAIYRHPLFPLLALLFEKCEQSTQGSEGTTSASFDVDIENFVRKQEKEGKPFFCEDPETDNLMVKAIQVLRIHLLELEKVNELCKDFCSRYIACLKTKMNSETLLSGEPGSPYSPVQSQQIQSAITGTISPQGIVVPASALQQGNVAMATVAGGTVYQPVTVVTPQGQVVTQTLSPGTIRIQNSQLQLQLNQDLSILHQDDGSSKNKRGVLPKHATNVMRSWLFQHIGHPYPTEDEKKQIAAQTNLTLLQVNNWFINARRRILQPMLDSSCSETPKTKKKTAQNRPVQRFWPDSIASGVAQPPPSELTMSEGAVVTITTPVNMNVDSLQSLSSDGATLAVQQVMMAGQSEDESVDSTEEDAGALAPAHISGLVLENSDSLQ


biological target: T1, PREP1_(1-436), wild-type recombinant …; assay: time-resolved fluorescence immunoassay (TR-FIA); plate coated with monoclonal anti-PBX1; PBX1 pre-incubated with PREP1 or MEIS1 for 1 h on ice, 10 µg/mL in 1% BSA PBS, 1 h at room temperature on the plate; detected with anti-PREP1 or biotinylated anti-MEIS1/2 and Eu^3+ conjugates; normalised to the wild-type protein taken as 1; conditions: both partners purified

| Binder | binding result |
| --- | --- |
| PBX1 I84A (natural protein, human, UniProt P40424 1-430, looked up, PBX1, residues 1-430; source: E. coli, purified) MDEQPRLMHSHAGVGMAGHPGLSQHLQDGAGGTEGEGGRKQDIGDILQQIMTITDQSLDEAQARKHALNCHRMKPALFNVLCEAKEKTVLSIRGAQEEEPTDPQLMRLDNMLLAEGVAGPEKGGGSAAAAAAAAASGGAGSDNSVEHSDYRAKLSQIRQIYHTELEKYEQACNEFTTHVMNLLREQSRTRPISPKEIERMVSIIHRKFSSIQMQLKQSTCEAVMILRSRFLDARRKRRNFNKQATEILNEYFYSHLSNPYPSEEAKEELAKKCGITVSQVSNWFGNKRIRYKKNIGKFQEEANIYAAKTAVTATNVSAHGSQANSPSTPNSAGSSSSFNMSNSGDLFMSVQSLNGDSYQGAQVGANVQSQVDTLRHVISQTGGYSDGLAASQMYSPQGISANGGWQDATTPSSVTSPTEGPGSVHSDTSN | binds |
| PBX1 L77A/I84A (natural protein, human, UniProt P40424 1-430, looked up, PBX1, residues 1-430; source: E. coli, purified) MDEQPRLMHSHAGVGMAGHPGLSQHLQDGAGGTEGEGGRKQDIGDILQQIMTITDQSLDEAQARKHALNCHRMKPAAFNVLCEAKEKTVLSIRGAQEEEPTDPQLMRLDNMLLAEGVAGPEKGGGSAAAAAAAAASGGAGSDNSVEHSDYRAKLSQIRQIYHTELEKYEQACNEFTTHVMNLLREQSRTRPISPKEIERMVSIIHRKFSSIQMQLKQSTCEAVMILRSRFLDARRKRRNFNKQATEILNEYFYSHLSNPYPSEEAKEELAKKCGITVSQVSNWFGNKRIRYKKNIGKFQEEANIYAAKTAVTATNVSAHGSQANSPSTPNSAGSSSSFNMSNSGDLFMSVQSLNGDSYQGAQVGANVQSQVDTLRHVISQTGGYSDGLAASQMYSPQGISANGGWQDATTPSSVTSPTEGPGSVHSDTSN | binds |
| PBX1 L77A/V80A (natural protein, human, UniProt P40424 1-430, looked up, PBX1, residues 1-430; source: E. coli, purified) MDEQPRLMHSHAGVGMAGHPGLSQHLQDGAGGTEGEGGRKQDIGDILQQIMTITDQSLDEAQARKHALNCHRMKPAAFNALCEIKEKTVLSIRGAQEEEPTDPQLMRLDNMLLAEGVAGPEKGGGSAAAAAAAAASGGAGSDNSVEHSDYRAKLSQIRQIYHTELEKYEQACNEFTTHVMNLLREQSRTRPISPKEIERMVSIIHRKFSSIQMQLKQSTCEAVMILRSRFLDARRKRRNFNKQATEILNEYFYSHLSNPYPSEEAKEELAKKCGITVSQVSNWFGNKRIRYKKNIGKFQEEANIYAAKTAVTATNVSAHGSQANSPSTPNSAGSSSSFNMSNSGDLFMSVQSLNGDSYQGAQVGANVQSQVDTLRHVISQTGGYSDGLAASQMYSPQGISANGGWQDATTPSSVTSPTEGPGSVHSDTSN | binds |
| PBX1 L105A/L108A (natural protein, human, UniProt P40424 1-430, looked up, PBX1, residues 1-430; source: E. coli, purified) MDEQPRLMHSHAGVGMAGHPGLSQHLQDGAGGTEGEGGRKQDIGDILQQIMTITDQSLDEAQARKHALNCHRMKPALFNVLCEIKEKTVLSIRGAQEEEPTDPQAMRADNMLLAEGVAGPEKGGGSAAAAAAAAASGGAGSDNSVEHSDYRAKLSQIRQIYHTELEKYEQACNEFTTHVMNLLREQSRTRPISPKEIERMVSIIHRKFSSIQMQLKQSTCEAVMILRSRFLDARRKRRNFNKQATEILNEYFYSHLSNPYPSEEAKEELAKKCGITVSQVSNWFGNKRIRYKKNIGKFQEEANIYAAKTAVTATNVSAHGSQANSPSTPNSAGSSSSFNMSNSGDLFMSVQSLNGDSYQGAQVGANVQSQVDTLRHVISQTGGYSDGLAASQMYSPQGISANGGWQDATTPSSVTSPTEGPGSVHSDTSN | binds |
| PBX1 L105A (natural protein, human, UniProt P40424 1-430, looked up, PBX1, residues 1-430; single alanine substitution; source: E. coli, purified) MDEQPRLMHSHAGVGMAGHPGLSQHLQDGAGGTEGEGGRKQDIGDILQQIMTITDQSLDEAQARKHALNCHRMKPALFNVLCEIKEKTVLSIRGAQEEEPTDPQAMRLDNMLLAEGVAGPEKGGGSAAAAAAAAASGGAGSDNSVEHSDYRAKLSQIRQIYHTELEKYEQACNEFTTHVMNLLREQSRTRPISPKEIERMVSIIHRKFSSIQMQLKQSTCEAVMILRSRFLDARRKRRNFNKQATEILNEYFYSHLSNPYPSEEAKEELAKKCGITVSQVSNWFGNKRIRYKKNIGKFQEEANIYAAKTAVTATNVSAHGSQANSPSTPNSAGSSSSFNMSNSGDLFMSVQSLNGDSYQGAQVGANVQSQVDTLRHVISQTGGYSDGLAASQMYSPQGISANGGWQDATTPSSVTSPTEGPGSVHSDTSN | binds |

Results, then the binder that gave them:

| binding result | Binder |
| --- | --- |
| binds | PBX1 L108A (natural protein, human, UniProt P40424 1-430, looked up, PBX1, residues 1-430; single alanine substitution; source: E. coli, purified) MDEQPRLMHSHAGVGMAGHPGLSQHLQDGAGGTEGEGGRKQDIGDILQQIMTITDQSLDEAQARKHALNCHRMKPALFNVLCEIKEKTVLSIRGAQEEEPTDPQLMRADNMLLAEGVAGPEKGGGSAAAAAAAAASGGAGSDNSVEHSDYRAKLSQIRQIYHTELEKYEQACNEFTTHVMNLLREQSRTRPISPKEIERMVSIIHRKFSSIQMQLKQSTCEAVMILRSRFLDARRKRRNFNKQATEILNEYFYSHLSNPYPSEEAKEELAKKCGITVSQVSNWFGNKRIRYKKNIGKFQEEANIYAAKTAVTATNVSAHGSQANSPSTPNSAGSSSSFNMSNSGDLFMSVQSLNGDSYQGAQVGANVQSQVDTLRHVISQTGGYSDGLAASQMYSPQGISANGGWQDATTPSSVTSPTEGPGSVHSDTSN |
| binds | PBX1 L81A (natural protein, human, UniProt P40424 1-430, looked up, PBX1, residues 1-430; source: E. coli, purified) MDEQPRLMHSHAGVGMAGHPGLSQHLQDGAGGTEGEGGRKQDIGDILQQIMTITDQSLDEAQARKHALNCHRMKPALFNVACEIKEKTVLSIRGAQEEEPTDPQLMRLDNMLLAEGVAGPEKGGGSAAAAAAAAASGGAGSDNSVEHSDYRAKLSQIRQIYHTELEKYEQACNEFTTHVMNLLREQSRTRPISPKEIERMVSIIHRKFSSIQMQLKQSTCEAVMILRSRFLDARRKRRNFNKQATEILNEYFYSHLSNPYPSEEAKEELAKKCGITVSQVSNWFGNKRIRYKKNIGKFQEEANIYAAKTAVTATNVSAHGSQANSPSTPNSAGSSSSFNMSNSGDLFMSVQSLNGDSYQGAQVGANVQSQVDTLRHVISQTGGYSDGLAASQMYSPQGISANGGWQDATTPSSVTSPTEGPGSVHSDTSN |
| binds | PBX1 L77A/V80A/L81A (natural protein, human, UniProt P40424 1-430, looked up, PBX1, residues 1-430; source: E. coli, purified) MDEQPRLMHSHAGVGMAGHPGLSQHLQDGAGGTEGEGGRKQDIGDILQQIMTITDQSLDEAQARKHALNCHRMKPAAFNAACEIKEKTVLSIRGAQEEEPTDPQLMRLDNMLLAEGVAGPEKGGGSAAAAAAAAASGGAGSDNSVEHSDYRAKLSQIRQIYHTELEKYEQACNEFTTHVMNLLREQSRTRPISPKEIERMVSIIHRKFSSIQMQLKQSTCEAVMILRSRFLDARRKRRNFNKQATEILNEYFYSHLSNPYPSEEAKEELAKKCGITVSQVSNWFGNKRIRYKKNIGKFQEEANIYAAKTAVTATNVSAHGSQANSPSTPNSAGSSSSFNMSNSGDLFMSVQSLNGDSYQGAQVGANVQSQVDTLRHVISQTGGYSDGLAASQMYSPQGISANGGWQDATTPSSVTSPTEGPGSVHSDTSN |
| binds | PBX1 L105A/L108A/L112A (natural protein, human, UniProt P40424 1-430, looked up, PBX1, residues 1-430; source: E. coli, purified) MDEQPRLMHSHAGVGMAGHPGLSQHLQDGAGGTEGEGGRKQDIGDILQQIMTITDQSLDEAQARKHALNCHRMKPALFNVLCEIKEKTVLSIRGAQEEEPTDPQAMRADNMALAEGVAGPEKGGGSAAAAAAAAASGGAGSDNSVEHSDYRAKLSQIRQIYHTELEKYEQACNEFTTHVMNLLREQSRTRPISPKEIERMVSIIHRKFSSIQMQLKQSTCEAVMILRSRFLDARRKRRNFNKQATEILNEYFYSHLSNPYPSEEAKEELAKKCGITVSQVSNWFGNKRIRYKKNIGKFQEEANIYAAKTAVTATNVSAHGSQANSPSTPNSAGSSSSFNMSNSGDLFMSVQSLNGDSYQGAQVGANVQSQVDTLRHVISQTGGYSDGLAASQMYSPQGISANGGWQDATTPSSVTSPTEGPGSVHSDTSN |
